Experimental data: paper PMC4425231

Key:
p50 dimerization domain = p50 dimerization domain (UniProt P25799); test: AUC + SEC
[1] = biological target: IκBβ (endogenous, MEF cytoplasmic extract) (mouse (endogenous in MEFs)) (UniProt Q60778); test: kinetic model fitted to immunoblot abundances of IκBs in NFκB-knockout MEFs
[2] = biological target: IκBβ (endogenous, MEF cytoplasmic extract) (mouse (endogenous in MEFs)) (UniProt Q60778); test: immunodepletion followed by deoxycholate EMSA

Sequence of IκBβ (endogenous, MEF cytoplasmic extract) (mouse (endogenous in MEFs)) (Q60778 whole entry): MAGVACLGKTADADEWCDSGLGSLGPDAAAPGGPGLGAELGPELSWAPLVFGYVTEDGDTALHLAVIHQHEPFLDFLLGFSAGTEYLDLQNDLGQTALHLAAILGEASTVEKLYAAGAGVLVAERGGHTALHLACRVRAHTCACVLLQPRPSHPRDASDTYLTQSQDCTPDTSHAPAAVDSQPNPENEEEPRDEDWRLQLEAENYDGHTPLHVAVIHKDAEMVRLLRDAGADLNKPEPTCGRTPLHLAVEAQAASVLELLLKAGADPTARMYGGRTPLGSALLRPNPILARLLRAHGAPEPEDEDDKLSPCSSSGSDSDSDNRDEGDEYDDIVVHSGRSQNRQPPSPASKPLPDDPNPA
Sequence of p50 dimerization domain (P25799 1-431): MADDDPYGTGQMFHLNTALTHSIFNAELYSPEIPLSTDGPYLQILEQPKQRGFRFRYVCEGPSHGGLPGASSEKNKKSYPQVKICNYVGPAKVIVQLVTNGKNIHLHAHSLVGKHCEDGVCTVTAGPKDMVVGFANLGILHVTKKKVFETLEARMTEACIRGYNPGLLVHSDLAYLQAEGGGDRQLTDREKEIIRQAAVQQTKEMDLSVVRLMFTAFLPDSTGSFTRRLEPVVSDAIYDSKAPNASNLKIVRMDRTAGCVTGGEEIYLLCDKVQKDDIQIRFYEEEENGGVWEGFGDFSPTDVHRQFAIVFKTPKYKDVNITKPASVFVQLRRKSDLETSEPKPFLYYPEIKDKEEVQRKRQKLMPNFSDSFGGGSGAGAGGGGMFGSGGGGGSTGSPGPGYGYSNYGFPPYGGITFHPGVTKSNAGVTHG

Substance: RelA dimerization domain (from UniProt Q04207 1-549) (domain or fragment)
- Kd (p50 dimerization domain): 10 nM

Substance: RelA:RelA homodimer (endogenous, MEF cytoplasmic extract) (from UniProt Q04207 1-549) (complex)
- Kd [1]: 0.0032 nM
- percent of the dimer bound to this IκB [2]: > 50%
